Test results from patent US5451411A, “Methods and compositions for the oral delivery of therapeutic agents” (University of Washington, priority 1993, dated 1995).

Assays:
gastrointestinal tract = details: sequential chemotherapeutic protocols; cited from earlier work
[1] = tested on: mouse anti-TGF-β1 monoclonal antibody, 1D11; assay: ELISA measured binding activity (immunoreactivity) of TGF-β1; details: solution without alginate, up to 0.14% w/v additive
Procedure: The ability of released TGF-β1 from both untreated and acid treated beads (as described above) to be recognized (bound) by a monoclonal antibody was assayed by ELISA as follows. An enzyme linked immunosorbent assay (ELISA) was used to quantitate the amount of immunoreactive TGF-β1 released from the untreated (PBS) and acid treated (HCl) alginate beads. The ELISA was based on the ability of a mouse anti-TGF-β1 monoclonal antibody, 1D11 (Bristol-Myers Squibb, Seattle, WA), to bind to the TGF-β1 molecule. When the 1D11 antibody was coated on 96-well immunoassay plates it captured TGF-β1 from the applied sample and standard solutions. Captured TGF-β1 was then bound by biotinylated 1D11 antibody which in turn was bound by a horseradish peroxidase/avidin D conjugate (Vector Labs cat #A-2004). A color reaction occurred by adding a chromophore/substrate solution of 3,3',5,5'-tetramethylbenzidine in CPB containing hydrogen peroxide. The reaction was stopped with the addition of 1 N sulfuric acid and the A450 was determined by a plate reader. Concentrations of the unknown samples were quantified relative to a TGF-β1 standard curve run on the same plate.
The immunoreactivity of TGF-β1 in solution in the presence of anionic amino acids, polyanions and polycations was studied using the ELISA procedure described in Example 2. To 1 mg/mL solutions of TGF-β1 in 5 mM HCl was added from 0 to 0.14%(w/v) of glutamic acid, aspartic acid, poly-L-aspartic acid (PLAA, Mw=13 kDa), sodium carboxymethyl cellulose (Na CMC, high viscosity), or polyacrylic acid (PAA, 2, 90 or 750 kDa). The reactivity of the TGF-β1 was then determined by the ELISA procedure, as described in Example 2.
Next, the ability of the additives to […] was investigated. Alginate solutions were prepared in accordance with the procedure of Example 1, incorporating 50 μg of TGF-β1, 0-0.15% (w/v) of sodium alginate and 0.1-1.0 mg (up to 0.125% w/v) of PAA (750 kDa), PLAA (13 kDa), NaCMC high viscosity or glutamic acid. The immunoreactivity of TGF-β1 was determined by ELISA as described in Example 2.
Alginate beads were prepared according to the procedure of Example 1 incorporating 50 μg TGF-β1 and 0.1-1.0 mg of additives. […] In addition, Poly-L-Lysine (PLL;123 kDa) was incorporated as a potential polycationic competitor. The additives were incorporated at an alginate:additive w/w ratio of from 75:10 to 75:1 as indicated below in Table 3.
To further assess the effect of amount of PAA incorporation on immunoreactivity of released TGF-β1, alginate beads were prepared by incubating TGF-β1 and PAA (90 kDa) for either 5 or 60 minutes (see FIG. 7) in w/w ratios of 75:1, 75:6 and 75:10, followed by dilution, addition of alginate, and bead formation in 1% CaCl2. The beads were acid treated in 0.1 N HCl at 37° C. for 30 minutes and then incubated at 37° C. in PBS, pH 7.4.

[2] = type: physicochemical
Procedure: Beads prepared in accordance with the procedure of Example 1 and containing 50 μg of ^125 I-TGF-β1 in 3.75-7.5 mg (original weight of alginate) were transferred to 15.0 mL polypropylene tubes containing 13.0 mL of PBS or of 0.1 N HCl at 37° C. In some cases, 1% BSA was added to the release media. The polypropylene tubes were gently shaken using a orbital shaker (200 rotations/minutes). At selected times, 100 μL aliquots were taken and counted for radioactivity. Care was taken so that aliquots contained no beads or bead fragments. The cumulative ^125 I-TGF-β1 released from the beads was calculated after correcting for volume changes. After 24 hours, the beads in 0.1 N HCl were transferred to PBS.
Alginate beads containing TGF-β1 and 90 kDa PAA (75:10 w/w in alginate:PAA) were prepared following the procedure of Example 1, and were acid treated for 30 minutes at 37° C. in 0.1 N HCl, as described in Example 2. The beads were then placed in PBS, pH 7.4, and the immunoreactivity of released TGF-β1 was determined by ^125 I radiolabel and ELISA, as described in Example 2. In addition, a growth inhibitory assay (GIA) was used to determine the bioactivity of the TGF-β1. The GIA measures the ability of TGF-β1 to inhibit the growth of mink lung epithelial cells (ATCC #CCL64) (T. Ikedaet al., "Human Transforming Growth Factor Type β2: Production By a Prostatic Adenocarcinoma Cell Line, Purification and Initial Characterization," Biochemistry 26:2406-2410 (1987)). The activity of the growth factor was determined by the inhibitory response of the cells to different concentrations of TGF-β1. Cell viability was based on the enzymatic cleavage by metabolically active cells of a tetrazolium salt into an orange/red formazan product. Prior to the assay cells were trypsinized and plated in a 96-well flat bottomed plate (Costar) at a concentration of 1000 cells/well. After allowing the cells to attach, samples containing the TGF-β1 and a reference standard were diluted to concentrations ranging from 1000 to 1.95 pg/ml and added to the wells. The cells were incubated for four days after which time a 100 μL solution containing 25 μg of sodium 3"-[1-(phenylamino)-carbonyl]-3,4-tetrazolium-bis(4-methoxy-6-nitro) benzene sulfonic acid hydrate (Diagnostic Chemicals, Ltd.) and 5 mM phenazine methosulfate (Aldrich) in media was added to each well. The cells were then incubated for 7 hours and the plates read on a microplate reader at an absorbance of 450 nm with a 630 nm reference filter. The specific activity of a sample was calculated relative to the reference material.

[3] = tested on: cells of epithelial origin, including human and rodent derived intestinal cells; details: cited from earlier work
[4] = tested on: mouse antiamphiregulin monoclonal antibody, 6R1C1; assay: ELISA of immunoreactive Amphiregulin released from alginate beads; type: binding; details: PBS
Procedure: The procedure of Example 10 was repeated substituting 25 μg of Amphiregulin for the Oncostatin-M of Example 11 and using a mouse antiamphiregulin monoclonal antibody, 6R1C1 (Bristol-Myers Squibb, Seattle, WA) as the capture antibody, followed by a goat anti-mouse horseradish peroxidase probe (Southern Biotech). The results are shown in FIG. 9 in which the symbols have the meanings of FIG. 8.

[5] = tested on: mouse anti-Oncostatin-M antibody, 11R2; assay: ELISA of immunoreactive Oncostatin-M released from alginate beads; type: binding; details: PBS
Procedure: Following the procedure of Example 1, alginate beads were prepared from 800 μl of an aqueous solution containing 25 μg of Oncostatin-M (site source) and 3750 μg of sodium alginate (Sigma, Low Viscosity). To a portion of the solution was added 300 μg of PAA (Jannsen, 90 kDa) prior to bead formation. Samples of the beads, both with and without added PAA, were subject to acid treatment by incubating the beads in 0.1 N HCl at 37° C. for 30 minutes, as described in Example 2. The beads were then placed in PBS, and the percentage amount of immunoreactive Oncostatin-M was determined by ELISA assay following the procedure of Example 2 using a mouse anti-Oncostatin-M antibody, 11R2 (Bristol-Myers Squibb, Seattle, WA) as the capture antibody and biotinylated 1R10 mouse anti-Oncostatin-M antibody (Bristol-Myers Squibb, Seattle, WA) as the probe, followed by horseradish peroxidase/avidin D. The results are shown in FIG. 8, in which (.quadrature.) represents acid treated beads containing PAA, represents bead containing PAA which were not acid treated, represents beads without PAA which were acid treated, and represents beads without PAA which were not acid treated.

**Q.** Which Gastrointestinal toxic alterations (gastrointestinal tract) does the source give for `O=c1[nH]c(=O)n([C@H]2C[C@H](O)[C@@H](CO)O2)cc1F` [floxuridine] here?
**A.** surface and glandular epithelial atypia, immaturity and necrosis

**Q.** With `N[C@@H](CCC(=O)O)C(=O)O` [glutamic acid, L-glutamic acid, reference compound] as the molecule, how does the “Interference of additive with ELISA measured binding activity of TGF-β1” value [1] read?
**A.** interfered to a lesser extent

**Q.** For `N[C@@H](CC(=O)O)C(=O)O` [aspartic acid, L-aspartic acid, reference compound], which “Interference of additive with ELISA measured binding activity of TGF-β1” value [1] is on record?
**A.** interfered to a lesser extent

**Q.** For `Nc1ccn([C@@H]2O[C@H](CO)[C@@H](O)[C@@H]2O)c(=O)n1` [cytosine arabinoside], which Gastrointestinal toxic alterations (gastrointestinal tract) is on record?
**A.** surface and glandular epithelial atypia, immaturity and necrosis

**Q.** Which “125I-TGF-β1 released in 0.1 N HCl” value ([2]; 0.1 N HCl, 24 hours, 37° C.) does the source give for “^125 I-TGF-β1: TGF-β1 radioiodinated by a modified chloramine-T method” here?
**A.** essentially no

**Q.** What about the “Further 125I-TGF-β1 release” value ([2]; PBS, even after 72 hours) of the same molecule?
**A.** no further ^125 I-TGF-β1 was released

**Q.** And the “Lag period before release” value ([2]; PBS, pH 7.4, 37° C.)?
**A.** 4 h

**Q.** And the “Cumulative 125I-TGF-β1 released (plateau)” value ([2]; PBS, pH 7.4, 37° C., after 20 hours, no acid treatment, no PAA)?
**A.** 81%

**Q.** And the “125I-TGF-β1 released after transfer from 0.1 N HCl to PBS” value ([2]; transferred to PBS after 24 hours in 0.1 N HCl, in 2.5 hours)?
**A.** 100%

**Q.** With `CO[C@@]12[C@H](COC(N)=O)C3=C(C(=O)C(C)=C(N)C3=O)N1C[C@@H]1N[C@@H]12` [mitomycinC] as the molecule, how does the Gastrointestinal toxic alterations (gastrointestinal tract) read?
**A.** surface and glandular epithelial atypia, immaturity and necrosis

**Q.** For TGF-β, which Growth inhibition [3] is on record?
**A.** inhibit the growth of many cells of epithelial origin

B1: Amphiregulin: 25 μg of Amphiregulin encapsulated in alginate beads with or without PAA (protein, UniProt P15514 101-187, looked up)
Amphiregulin: SVRVEQVVKPPQNKTESENTSDKPKRKKKGGKNGKNRRNRKKKNPCNAEFQNFCIHGECKYIEHLEAVTCKCQQEYFGERCGEKSMK
modifications: encapsulated in alginate beads
notes: 25 μg of Amphiregulin encapsulated in alginate beads with or without PAA
**Q.** Which “Immunoreactive Amphiregulin released, acid treated beads containing PAA” value [4] does the source give for B1 here?
**A.** 67%

**Q.** And the “Immunoreactive Amphiregulin released, acid treated beads without PAA” value [4]?
**A.** 31%

**Q.** And the “Immunoreactive Amphiregulin released, non acid treated beads containing PAA” value [4]?
**A.** 52%

**Q.** What about the “Immunoreactive Amphiregulin released, non acid treated beads without PAA” value [4] of the same molecule?
**A.** 22%

B2: Oncostatin-M: 25 μg of Oncostatin-M encapsulated in alginate beads with or without PAA (protein, UniProt P13725 26-221, looked up)
Oncostatin-M: AAIGSCSKEYRVLLGQLQKQTDLMQDTSRLLDPYIRIQGLDVPKLREHCRERPGAFPSEETLRGLGRRGFLQTLNATLGCVLHRLADLEQRLPKAQDLERSGLNIEDLEKLQMARPNILGLRNNIYCMAQLLDNSDTAEPTKAGRGASQPPTPTPASDAFQRKLEGCRFLHGYHRFMHSVGRVFSKWGESPNRSRR
modifications: alginate bead encapsulation
notes: 25 μg of Oncostatin-M encapsulated in alginate beads with or without PAA
**Q.** For B2, which “Immunoreactive Oncostatin-M released, acid treated beads containing PAA” value ([5]; PAA 90 kDa) is on record?
**A.** 85%

**Q.** What about the “Immunoreactive Oncostatin-M released, non acid treated beads containing PAA” value ([5]; PAA 90 kDa) of the same molecule?
**A.** 38%

**Q.** What about the “Immunoreactive Oncostatin-M released, "non acid treated beads with PAA" (second value)” value [5] of the same molecule?
**A.** 20%

**Q.** And the “Immunoreactive Oncostatin-M released, acid treated beads without PAA” value [5]?
**A.** 18%
